Several values for one entry are separate records, joined by “and”; a condition that tells them apart may be missing. Identical values can stand only once.
Legend:
FcγRI [1] = target: T1, FcγRI (UniProt P12314 16-288, limits assumed); assay: Octet QK384, FcγRI on Ni-NTA biosensors, 7 XTMAB-16 concentrations, 1:1 model fit
T1 construct: It was immobilized on Ni-NTA biosensors, which implies a His tag; The ELISA paragraph calls it 'His tab-labeled recombinant purified FcγRI'; also called CD64

[2] = target: TNFα from cynomolgus monkey (cynomolgus monkey, UniProt P79337 77-233, limits assumed); assay: ELISA, cross-species binding studies
TNFα from rat = target: T2, TNFα from rat (rat, UniProt P16599 80-235); assay: ELISA, cross-species binding studies
T2 sequence (looked up): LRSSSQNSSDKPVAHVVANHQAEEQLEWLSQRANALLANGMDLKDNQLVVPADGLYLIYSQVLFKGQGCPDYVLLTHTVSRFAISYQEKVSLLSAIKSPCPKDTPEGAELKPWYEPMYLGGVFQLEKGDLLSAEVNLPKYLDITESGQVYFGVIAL

TNFα from rhesus monkey = TNFα from rhesus monkey (rhesus monkey, UniProt P48094 77-233); assay: ELISA, cross-species binding studies
TNFα from dog = TNFα from dog (dog, UniProt P51742 77-233); assay: ELISA, cross-species binding studies
His-tagged FcγRIIIa = target: T3, His-tagged FcγRIIIa (UniProt P08637 17-208, limits assumed); assay: Octet QK384, steady-state KD from binding curves; range stated for the batches
T3 construct: His-tagged and captured on anti-penta-His biosensors; also called CD16

FcγRI [3] = target: T1, FcγRI; assay: Octet QK384, FcγRI on Ni-NTA biosensors; range stated for the batches

T1 sequence (P12314 16-288 limits assumed): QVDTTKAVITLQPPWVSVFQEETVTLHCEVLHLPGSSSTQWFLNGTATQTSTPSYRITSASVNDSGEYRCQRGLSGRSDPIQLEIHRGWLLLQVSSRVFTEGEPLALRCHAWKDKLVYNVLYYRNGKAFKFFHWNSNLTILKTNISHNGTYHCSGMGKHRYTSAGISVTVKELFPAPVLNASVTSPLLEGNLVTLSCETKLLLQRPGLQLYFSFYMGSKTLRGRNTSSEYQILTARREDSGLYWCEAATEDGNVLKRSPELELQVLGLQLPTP
T3 sequence (P08637 17-208 limits assumed): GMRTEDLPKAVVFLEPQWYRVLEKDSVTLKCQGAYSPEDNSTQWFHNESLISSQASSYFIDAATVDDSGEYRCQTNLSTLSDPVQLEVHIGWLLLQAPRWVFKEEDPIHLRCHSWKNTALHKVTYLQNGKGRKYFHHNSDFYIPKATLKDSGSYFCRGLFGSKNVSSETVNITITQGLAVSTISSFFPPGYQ
TNFα from cynomolgus monkey, sequence (P79337 77-233 limits assumed): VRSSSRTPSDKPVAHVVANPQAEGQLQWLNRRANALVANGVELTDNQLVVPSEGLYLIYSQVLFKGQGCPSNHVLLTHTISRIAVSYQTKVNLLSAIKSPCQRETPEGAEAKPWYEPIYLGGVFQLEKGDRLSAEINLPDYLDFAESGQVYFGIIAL
TNFα from dog, sequence (P51742 77-233 limits assumed): as the sequence (P79337 77-233 limits assumed) above, with R2K, Q21E, N30S, V37L, V49I, E53D, N72T, I83F, A109T, D140N counted along it
TNFα from rhesus monkey, sequence (P48094 77-233 limits assumed): as the sequence (P79337 77-233 limits assumed) above, with V37L counted along it

- Kd (FcγRI [1]): 0.68 nM and 0.63 nM
- binding result [2]: no binding
- binding result (TNFα from rat): no binding
- binding result (TNFα from rhesus monkey): no binding
- binding result (TNFα from dog): no binding
- Kd (His-tagged FcγRIIIa): 300 nM
- Kd (FcγRI [3]): 0.5 nM and 0.9 nM
B1: XTMAB-16 (antibody, human IgG1, kappa)
heavy: not shown
light: DILLTQSPAILSVSPGERVSFSCRASQFVGSSIHWYQQRTNGSPRLLIKYASESMSGIPSRFSGSGSGTDFTLSINTVESEDIADYYCQQSHSWPFTFGSGTNLEVKRTVAAPSVFIFPPSDEQLKSGTASVVCLLNNFYPREAKVQWKVDNALQSGNSQESVTEQDSKDSTYSLSSTLTLSKADYEKHKVYACEVTHQGLSSPVTKSFNRGEC
notes: The general description says the antibody is sialylated with N-acetylneuraminic acid (Asn 297 in embodiments) and glycosylated at Asn 300; All batches (A-H); also called XTMB-16

— patent US20260042831A1 (XENTRIA, published 2026)
